# Measured values published in US20230049152A1 (Genentech, published 2023).
# T1: human ACKR4 (human, UniProt Q9NPB9 1-350)
# T1 construct: whole, on cells; transiently expressed on HEK293 cells
# T1 sequence (looked up): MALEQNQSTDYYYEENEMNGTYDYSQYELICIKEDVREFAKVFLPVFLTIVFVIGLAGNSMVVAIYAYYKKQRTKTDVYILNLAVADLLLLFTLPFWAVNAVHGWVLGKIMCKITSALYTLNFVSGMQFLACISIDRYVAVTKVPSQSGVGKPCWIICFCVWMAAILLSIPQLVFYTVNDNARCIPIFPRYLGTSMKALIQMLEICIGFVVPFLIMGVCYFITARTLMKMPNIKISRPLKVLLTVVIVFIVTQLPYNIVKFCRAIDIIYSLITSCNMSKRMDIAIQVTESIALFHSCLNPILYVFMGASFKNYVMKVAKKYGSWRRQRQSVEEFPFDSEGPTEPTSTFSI
# T2: human CCR4 (human, UniProt P51679 1-360)
# T2 construct: whole, on cells; transiently expressed on HEK293 cells
# T2 sequence (looked up): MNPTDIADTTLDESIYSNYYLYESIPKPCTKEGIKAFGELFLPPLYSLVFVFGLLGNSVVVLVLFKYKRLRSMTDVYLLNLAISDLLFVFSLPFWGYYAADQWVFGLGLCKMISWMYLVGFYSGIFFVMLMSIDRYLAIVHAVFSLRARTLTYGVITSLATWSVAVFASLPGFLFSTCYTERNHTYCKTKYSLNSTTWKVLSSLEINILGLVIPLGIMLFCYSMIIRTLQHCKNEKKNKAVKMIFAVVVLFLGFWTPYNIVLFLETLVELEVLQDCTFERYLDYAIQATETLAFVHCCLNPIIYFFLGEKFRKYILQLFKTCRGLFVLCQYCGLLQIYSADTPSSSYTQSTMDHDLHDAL
# T3: human CCR3 (human, UniProt P51677 1-355)
# T3 construct: whole, on cells; transiently expressed on HEK293 cells
# T3 sequence (looked up): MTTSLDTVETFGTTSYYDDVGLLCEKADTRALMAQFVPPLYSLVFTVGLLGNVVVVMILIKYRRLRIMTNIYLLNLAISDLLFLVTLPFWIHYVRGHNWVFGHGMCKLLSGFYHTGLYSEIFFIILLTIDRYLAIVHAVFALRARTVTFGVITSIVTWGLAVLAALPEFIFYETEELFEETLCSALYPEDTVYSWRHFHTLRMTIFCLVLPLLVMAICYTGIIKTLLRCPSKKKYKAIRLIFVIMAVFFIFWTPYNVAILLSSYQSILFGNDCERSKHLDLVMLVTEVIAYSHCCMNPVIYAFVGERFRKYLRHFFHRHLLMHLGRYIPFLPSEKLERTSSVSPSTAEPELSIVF
# What was measured:
# human CXCR4 = target: T4, human CXCR4 (human, UniProt P61073 1-352); assay: flow cytometry, HEK293 with N-term FLAG-tagged human CXCR4
# T4 construct: whole, on cells; transiently expressed on HEK293 cells
# Source text: (§1) FIGS. 4A-4F depicts the binding data of hu.Ab3.H1L1 (FIG. 4A), hu.Ab4.H1L1 (FIG. 4B), and hu.Ab5.H1L1 (FIG. 4C), as well as the commercial anti-CCR8 mAbs murine anti-human CCR8 mAb 433H (BD Biosciences) (FIG. 4D), and murine anti-human CCR8 mAb L263G8 (Biolegend) (FIG. 4E), and the humanized anti-human Yoshida anti-CCR8 mAb (FIG. 4F), to HEK293 cells that were transiently transfected with N-term FLAG-tagged plasmids encoding for human GPCRs (CCR2, CCR3, CCR4, CCR5, CCR8, CXCR4, ACKR2, and ACKR4), hCCR8 constructs, or with a mock construct using transIT X2 (reagent:DNA=3:1).
# (§2) To confirm the selectivity to CCR8, the binding of hu.Ab3.H1L1, hu.Ab4.H1L1, and hu.Ab5.H1L1, as well as the Yoshida humanized anti-human CCR8, murine anti-human CCR8 mAb L263G8 (Biolegend, Commercial Ab) and murine anti-human CCR8 mAb 433H (BD Biosciences, Commercial Ab), were characterized by flow cytometry on HEK293 cells that were transiently transfected with plasmids encoding for FLAG-tagged other related human GPCRs (CCR2-5, CXCR4, ACKR2, and ACKR4). Cell surface expression of each GPCR was confirmed by staining with an anti-FLAG antibody control. […]
# human ACKR4 = target: T1, human ACKR4; assay: flow cytometry, HEK293 with N-term FLAG-tagged human ACKR4
# Source text: as §1, §2
# human CCR4 = target: T2, human CCR4; assay: flow cytometry, HEK293 with N-term FLAG-tagged human CCR4, procedure of FIG. 4
# Source text: (§3) To confirm the selectivity to CCR8, the binding of hu.Ab3.H1L1, hu.Ab4.H1L1, and hu.Ab5.H1L1, as well as the Yoshida humanized anti-human CCR8, murine anti-human CCR8 mAb L263G8 (Biolegend, Commercial Ab) and murine anti-human CCR8 mAb 433H (BD Biosciences, Commercial Ab), were characterized by flow cytometry on HEK293 cells that were transiently transfected with plasmids encoding for FLAG-tagged other related human GPCRs (CCR2-5, CXCR4, ACKR2, and ACKR4). Cell surface expression of each GPCR was confirmed by staining with an anti-FLAG antibody control. In particular, HEK293 cells were transfected with N-term FLAG-tagged human CCR2, CCR3, CCR4, CCR5, CXCR4, ACKR2, ACKR4, hCCR8 constructs, or with a Mock construct using transIT X2 (reagent:DNA=3:1) for 24 hours, and surface stained with various anti-hCCR8 monoclonal antibodies at 5 ug/ml, or rabbit anti-Flag pAb (Sigma) followed by AF647-anti-hIgG or AF647-anti-RbIgG respectively. Antibodies hu.Ab4.H1L1, and hu.Ab5.H1L1, only stained the hCCR8-containing cells, confirming their specificity to hCCR8. […] Thus, the CCR8 selective hu.Ab4.H1L1 and hu.Ab5.H1L1 antibodies with the best ADCC activities were carried forward.
# (§4) To reconfirm that the Ab4 and Ab5 variants remained selective to CCR8 compared to the corresponding HIL1 variants, binding was analyzed by flow cytometry following the procedure as described for FIG. 4A and FIG. 4B. […]
# GST-FcgR3a.F158 = target: T5, GST-FcgR3a.F158 (UniProt P08637 17-208, limits assumed); assay: ELISA, GST-FcgR3a.F158 captured by anti-GST antibody
# T5 construct: Captured by anti-GST antibody on ELISA plate; also called FcgR3a.F158 protein; Fcgamma RIIIa F158; not shown: GST tag
# Procedure: (§5) The binding of fucosylated and afucosylated variants of hu.Ab5.H13L1 and hu.Ab4.H12L3 to both FcgR3a proteins by ELISA was studied. Briefly, an anti-GST antibody was coated on Nunc Maxisorp plates. GST-FcgR3a.V158 and GST-FcgR3a.F158 were captured at 500 ng/mL. Plates were then washed and then serially diluted anti-CCR8 antibodies starting at 100 ug/mL were incubated on the plate for 1 hour at room temperature. Plates were washed and bound antibody was detected by a HRP-conjugated anti-human IgG secondary antibody. Absorbance at 450 nm was measured by a plate reader. The data were fitted using a 4-parameter logistic curve in Softmax Pro.
# human CCR3 = target: T3, human CCR3; assay: flow cytometry, HEK293 with N-term FLAG-tagged human CCR3, procedure of FIG. 4
# Source text: as §3, §4
# GST-FcgR3a.V158 = target: T6, GST-FcgR3a.V158 (UniProt P08637 17-208, limits assumed); assay: ELISA, GST-FcgR3a.V158 captured by anti-GST antibody
# T6 construct: Captured by anti-GST antibody on ELISA plate; also called FcgR3a.V158 protein; Fcgamma RIIIa V158; not shown: GST tag
# Procedure: as §5
# T6 sequence (P08637 17-208 F176V limits assumed): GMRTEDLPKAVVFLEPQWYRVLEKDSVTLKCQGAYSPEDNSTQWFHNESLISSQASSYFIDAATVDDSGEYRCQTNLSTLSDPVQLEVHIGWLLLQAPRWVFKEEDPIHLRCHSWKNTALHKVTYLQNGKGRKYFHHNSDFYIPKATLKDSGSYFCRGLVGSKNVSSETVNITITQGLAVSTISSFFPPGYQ
# T4 sequence (P61073 whole entry): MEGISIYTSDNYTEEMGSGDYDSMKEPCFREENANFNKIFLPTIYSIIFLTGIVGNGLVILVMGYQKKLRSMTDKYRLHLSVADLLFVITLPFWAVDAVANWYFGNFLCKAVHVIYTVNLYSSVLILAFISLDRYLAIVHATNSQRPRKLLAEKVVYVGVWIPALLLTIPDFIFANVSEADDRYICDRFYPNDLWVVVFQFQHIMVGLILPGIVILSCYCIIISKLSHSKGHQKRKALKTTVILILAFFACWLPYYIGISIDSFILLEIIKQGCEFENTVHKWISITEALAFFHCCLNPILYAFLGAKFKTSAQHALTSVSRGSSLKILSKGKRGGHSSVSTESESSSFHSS
# T5 sequence (P08637 17-208 limits assumed): as the sequence (P08637 17-208 F176V limits assumed) above, with V160F counted along it
binding result (human CXCR4),binding result (human ACKR4),binding result (human CCR4),EC50 (GST-FcgR3a.F158) [µg/mL],binding result (human CCR3),EC50 (GST-FcgR3a.V158) [µg/mL],Binder
no binding (tested: 5 ug/ml),no binding (tested: 5 ug/ml),,,,,"hu.Ab5.H1L1 (antibody, human IgG1, kappa) heavy: not shown light: DIQVTQSPSSLSASVGDRVTITCQASENIANALAWYQQKPGKPPKFLIYGASNLASGVPSRFSGSGSGTDFTFTISSLQPEDIATYYCQQAYYGNSFVEGTFGGGTKVEIKRTVAAPSVFIFPPSDEQLKSGTASVVCLLNNFYPREAKVQWKVDNALQSGNSQESVTEQDSKDSTYSLSSTLTLSKADYEKHKVYACEVTHQGLSSPVTKSFNRGEC"
,,no binding (tested: 5 ug/ml),4.11,no binding (tested: 5 ug/ml),0.39,"hu.Ab5.H13L1 (antibody, human IgG1, kappa, fucosylated human IgG1; also called Ab5 variant) heavy: not shown light: DIQVTQSPSSLSASVGDRVTITCQASENIANALAWYQQKPGKPPKFLIYGASNLASGVPSRFSGSGSGTDFTFTISSLQPEDIATYYCQQAYYGNSFVEGTFGGGTKVEIKRTVAAPSVFIFPPSDEQLKSGTASVVCLLNNFYPREAKVQWKVDNALQSGNSQESVTEQDSKDSTYSLSSTLTLSKADYEKHKVYACEVTHQGLSSPVTKSFNRGEC"
no binding (tested: 5 ug/ml),no binding (tested: 5 ug/ml),,,,,"hu.Ab4.H1L1 (antibody, human IgG1, kappa, also called hu.Ab4.H1Ll) heavy: not shown light: DYQMTQSPSSLSASVGDRVTITCQASQSISSYLSWYQQKPGKRPKLLIYKASTLASGVPSRFSGSGSGTDFTLTISSLQPEDFATYYCQQGYTSSNIDNIFGGGTKVEIKRTVAAPSVFIFPPSDEQLKSGTASVVCLLNNFYPREAKVQWKVDNALQSGNSQESVTEQDSKDSTYSLSSTLTLSKADYEKHKVYACEVTHQGLSSPVTKSFNRGEC"
,,no binding (tested: 5 ug/ml),3.74,no binding (tested: 5 ug/ml),0.388,"hu.Ab4.H12L3 (antibody, human IgG1, kappa, fucosylated human IgG1; also called huCCR8-Ab4.H12L3.hIgG1; Ab4 variant) heavy: not shown light: DYQMTQSPSSLSASVGDRVTITCQASQSISSYLSWYQQKPGKAPKLLIYKASTLASGVPSRFSGSGSGTDFTLTISSLQPEDFATYYCQQGYTSSNIDNIFGGGTKVEIKRTVAAPSVFIFPPSDEQLKSGTASVVCLLNNFYPREAKVQWKVDNALQSGNSQESVTEQDSKDSTYSLSSTLTLSKADYEKHKVYACEVTHQGLSSPVTKSFNRGEC"
